{"source": "paper PMC4917648", "about": "“praja2 regulates KSR1 stability and mitogenic signaling” (Cell Death & Disease, 2016)", "binders": {"B1": {"name": "praja2 (endogenous) (natural protein, human (endogenous in HEK293), UniProt O43164 1-708, looked up)", "chain": "MSQYTEKEPAAMDQESGKAVWPKPAGGYQTITGRRYGRRHAYVSFKPCMTRHERSLGRAGDDYEVLELDDVPKENSSGSSPLDQVDSSLPSEPIFEKSETEIPTCGSALNQTTESSQSFVAVHHSEEGRDTLGSSTNLHNHSEGEYIPGACSASSVQNGIALVHTDSYDPDGKHGEDNDHLQLSAEVVEGSRYQESLGNTVFELENREAEAYTGLSPPVPSFNCEVRDEFEELDSVPLVKSSAGDTEFVHQNSQEIQRSSQDEMVSTKQQNNTSQERQTEHSPEDAACGPGHICSEQNTNDREKNHGSSPEQVVRPKVRKLISSSQVDQETGFNRHEAKQRSVQRWREALEVEESGSDDLLIKCEEYDGEHDCMFLDPPYSRVITQRETENNQMTSESGATAGRQEVDNTFWNGCGDYYQLYDKDEDSSECSDGEWSASLPHRFSGTEKDQSSSDESWETLPGKDENEPELQSDSSGPEEENQELSLQEGEQTSLEEGEIPWLQYNEVNESSSDEGNEPANEFAQPAFMLDGNNNLEDDSSVSEDLDVDWSLFDGFADGLGVAEAISYVDPQFLTYMALEERLAQAMETALAHLESLAVDVEVANPPASKESIDGLPETLVLEDHTAIGQEQCCPICCSEYIKDDIATELPCHHFFHKPCVSIWLQKSGTCPVCRRHFPPAVIEASAAPSSEPDPDAPPSNDSIAEAP"}}, "molecular_target": "T1, kinase suppressor of Ras 1 (KSR1), endogenous (human (endogenous in HEK293), UniProt Q8IVT5 1-923)", "T1 sequence (looked up)": "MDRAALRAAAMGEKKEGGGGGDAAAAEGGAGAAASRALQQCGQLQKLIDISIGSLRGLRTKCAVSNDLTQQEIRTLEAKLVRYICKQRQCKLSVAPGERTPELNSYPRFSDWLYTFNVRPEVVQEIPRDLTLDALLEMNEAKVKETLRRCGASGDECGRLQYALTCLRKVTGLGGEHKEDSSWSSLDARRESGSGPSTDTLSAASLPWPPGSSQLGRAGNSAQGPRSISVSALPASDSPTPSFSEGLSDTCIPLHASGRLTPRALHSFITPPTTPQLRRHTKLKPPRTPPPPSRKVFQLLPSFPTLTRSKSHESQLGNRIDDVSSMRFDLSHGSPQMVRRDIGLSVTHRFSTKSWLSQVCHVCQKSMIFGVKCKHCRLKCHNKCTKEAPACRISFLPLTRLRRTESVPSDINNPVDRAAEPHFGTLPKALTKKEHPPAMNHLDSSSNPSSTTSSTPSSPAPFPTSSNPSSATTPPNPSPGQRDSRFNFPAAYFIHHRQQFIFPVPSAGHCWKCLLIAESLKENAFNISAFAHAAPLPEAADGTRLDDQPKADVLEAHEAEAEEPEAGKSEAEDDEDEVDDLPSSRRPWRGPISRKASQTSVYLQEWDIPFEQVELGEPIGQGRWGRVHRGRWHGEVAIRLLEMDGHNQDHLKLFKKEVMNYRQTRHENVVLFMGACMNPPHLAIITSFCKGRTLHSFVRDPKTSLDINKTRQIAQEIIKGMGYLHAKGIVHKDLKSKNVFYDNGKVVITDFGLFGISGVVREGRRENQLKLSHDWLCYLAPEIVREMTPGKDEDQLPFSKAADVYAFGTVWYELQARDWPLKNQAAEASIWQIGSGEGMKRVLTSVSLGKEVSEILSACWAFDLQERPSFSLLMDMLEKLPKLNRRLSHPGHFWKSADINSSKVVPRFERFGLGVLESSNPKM", "assay": "cell-based or functional assay", "data": [{"binder": "B1", "values": [{"measurement": "growth of MCF-7 cells treated for 48 h with go-onERK-Flag against scrambled-Flag (cell counts)", "result": "~2", "unit": "fold"}]}]}
